Results published in patent US20220380456A1 (UNITED KINGDOM RESEARCH AND INNOVATION, published 2022).

How the values were obtained:
[1] = biological target: T1, His6-TEV-MSP1D1 (CA15914) (human Apo A-I derived, engineered, biotinylated with EZ-link NHS-Biotin for the BLI experiment only); assay: BLI (OctetRED96), biotinylated MSP1D1 (Apo-state) on streptavidin sensors, 1:2 binding model, 30 °C; biotinylated Apo-state MSP1D1 on the SA sensor; 30 C; 1:2 binding model
T1 construct: Membrane scaffold protein; The entry holds the 6xHis tag, the TEV cleavage site and MSP1D1; Tested in Apo-state (lipid free) and in Nanodisc-state (POPC nanodisc, two MSP1D1 per nanodisc)
T1 chain: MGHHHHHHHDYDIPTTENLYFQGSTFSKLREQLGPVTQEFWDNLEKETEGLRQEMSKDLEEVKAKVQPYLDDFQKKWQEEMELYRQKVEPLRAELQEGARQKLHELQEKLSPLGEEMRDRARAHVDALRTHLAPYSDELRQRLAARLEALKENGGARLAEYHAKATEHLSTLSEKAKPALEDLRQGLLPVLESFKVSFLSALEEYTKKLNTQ

[2] = biological target: T1, His6-TEV-MSP1D1 (CA15914); assay: BLI (OctetRED96), biotinylated Apo MSP1D1 on streptavidin sensors, 1:2 binding model
[3] = biological target: T2, His6-TEV-MSP2N2 (CA15915) (human Apo A-I derived, engineered, UniProt P02647 79-267, limits assumed); assay: ELISA, purified MegaBody on coated MSP (Apo- or Nanodisc-state) vs non-coated wells, A405
T2 construct: Membrane scaffold protein; The entry holds the 6xHis tag, the TEV cleavage site and MSP2N2; Tested in Apo-state, in Nanodisc-state, and as the belt of nanodiscs loaded with GABAAR-β3

[4] = biological target: T1, His6-TEV-MSP1D1 (CA15914); assay: as above
[5] = biological target: T3, MSP1E3D1 (human Apo A-I derived, engineered); assay: ELISA on coated MSP variants, n=3
T3 construct: also called MSP1E1D3 MSP variant
T3 chain: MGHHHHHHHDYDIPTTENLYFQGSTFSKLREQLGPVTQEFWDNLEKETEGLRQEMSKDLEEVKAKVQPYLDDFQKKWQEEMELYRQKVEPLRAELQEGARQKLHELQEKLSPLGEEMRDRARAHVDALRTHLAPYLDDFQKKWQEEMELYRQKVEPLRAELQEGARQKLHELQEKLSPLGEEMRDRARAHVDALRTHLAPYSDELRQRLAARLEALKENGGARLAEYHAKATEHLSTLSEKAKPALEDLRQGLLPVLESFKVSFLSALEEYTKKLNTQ

B1: MbNbF3^c7HopQ MegaBody (CA15192) (other)
chain: QVQLVESGGGLVQTKTTTSVIDTTNDAQNLLTQAQTIVNTLKDYCPILIAKSSSSNGGTNNANTPSWQTAGGGKNSCATFGAEFSAASDMINNAQKIVQETQQLSANQPKNITQPHNLNLNSPSSLTALAQKMLKNAQSQAEILKLANQVESDFNKLSSGHLKDYIGKCDASAISSANMTMQNQKNNWGNGCAGVEETQSLLKTSAADFNNQTPQINQAQNLANTLIQELGNNTYEQLSRLLTNDNGTNSKTSAQAINQAVNNLNERAKTLAGGTTNSPAYQATLLALRSVLGLWNSMGYAVICGGYTKSPGENNQKDFHYTDENGNGTTINCGGSTNSNGTHSYNGTNTLKADKNVSLSIEQYEKIHEAYQILSKALKQAGLAPLNSKGEKLEAHVTTSKYGSLRLSCAASGSGFGPNVMGWYRQAPGKRRELVATINRIGNINYGDSVKGRFTLSREIAVNTVYLQMNSLKPEDAANYYCYAAKYGVDYWGKGTQVTVSSHHHHHHEPEA
notes: MegaBody: c7HopQ scaffold inserted in the first β-turn of Nanobody MP1521_F3; Entry includes 6xHis and EPEA tags; also called MbF3^c7HopQ MegaBody
- Kd [1]: 23.5 nM
- koff [2]: 0.00103 s⁻¹
- kon [2]: 44000 M⁻¹ s⁻¹
- fold ELISA signal over no MSP [3]: ≥ 4 fold
- fold ELISA signal over no MSP [4]: ≥ 4 fold
- binding result [5]: binds
